Values quoted from earlier work as cited in article PMC10650157.

Columns and labels:
[1] = target: apo-transferrin (Homo sapiens) (UniProt P02787)
[2] = target: apo-lactoferrin (Homo sapiens) (UniProt P02788)
Chain of UniProt P02788 (P02788 20-710): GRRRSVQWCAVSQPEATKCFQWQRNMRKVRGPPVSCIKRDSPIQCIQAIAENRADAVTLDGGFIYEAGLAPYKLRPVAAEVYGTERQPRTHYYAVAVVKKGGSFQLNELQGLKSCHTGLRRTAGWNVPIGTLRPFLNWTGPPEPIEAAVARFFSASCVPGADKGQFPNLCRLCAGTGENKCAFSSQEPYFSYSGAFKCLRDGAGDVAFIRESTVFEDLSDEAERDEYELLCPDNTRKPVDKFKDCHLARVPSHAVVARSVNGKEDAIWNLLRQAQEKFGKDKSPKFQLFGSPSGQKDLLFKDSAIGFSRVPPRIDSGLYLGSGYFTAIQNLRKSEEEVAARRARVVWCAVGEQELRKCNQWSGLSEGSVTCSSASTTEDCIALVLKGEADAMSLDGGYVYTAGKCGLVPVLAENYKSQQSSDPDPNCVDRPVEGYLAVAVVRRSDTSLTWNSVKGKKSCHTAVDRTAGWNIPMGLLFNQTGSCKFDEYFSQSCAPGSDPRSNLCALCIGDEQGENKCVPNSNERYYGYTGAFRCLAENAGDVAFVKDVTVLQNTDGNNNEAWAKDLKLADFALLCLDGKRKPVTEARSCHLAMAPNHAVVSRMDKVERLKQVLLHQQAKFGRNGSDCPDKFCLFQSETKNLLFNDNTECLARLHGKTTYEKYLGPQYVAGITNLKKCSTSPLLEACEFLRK

Chain of UniProt P02787 (P02787 20-698): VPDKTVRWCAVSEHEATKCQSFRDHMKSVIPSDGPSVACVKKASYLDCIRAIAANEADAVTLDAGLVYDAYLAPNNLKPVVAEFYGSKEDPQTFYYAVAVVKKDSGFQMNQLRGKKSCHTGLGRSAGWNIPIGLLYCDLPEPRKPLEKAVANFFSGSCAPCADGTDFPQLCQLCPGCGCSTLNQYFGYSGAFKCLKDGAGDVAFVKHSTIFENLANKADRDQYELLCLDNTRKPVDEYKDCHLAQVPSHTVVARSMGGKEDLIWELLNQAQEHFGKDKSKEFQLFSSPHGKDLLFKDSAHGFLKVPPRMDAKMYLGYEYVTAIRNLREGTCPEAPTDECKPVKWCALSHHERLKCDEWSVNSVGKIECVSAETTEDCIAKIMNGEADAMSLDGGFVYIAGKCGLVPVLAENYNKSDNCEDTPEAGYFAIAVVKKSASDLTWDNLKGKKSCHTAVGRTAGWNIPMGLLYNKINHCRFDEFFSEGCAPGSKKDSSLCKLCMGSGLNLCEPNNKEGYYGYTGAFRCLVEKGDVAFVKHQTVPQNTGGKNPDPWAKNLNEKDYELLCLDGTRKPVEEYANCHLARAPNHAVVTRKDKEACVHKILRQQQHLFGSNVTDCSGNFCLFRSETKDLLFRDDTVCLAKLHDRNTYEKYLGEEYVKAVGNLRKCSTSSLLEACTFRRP

In the case of Ceruloplasmin (from UniProt P00450), the Kd [1] is listed as 51.3 µM and the Kd [2] is listed as 7.4 µM.
